Test results reported in US20030186915A1, “Regulatory polynucleotides and uses thereof” (priority 2002, published 2003).

B1: Cbfa1: transcription factor; gene recovered from an SAOS cDNA library, overexpressed from a mammalian expression vector (protein)
chain: MASNSLFSTVTPCQQNFFWDPSTSRRFSPPSSSLQPGKMSDVSPVVAAQQQQQQQQQQQQQQQQQQQQQQQEAAAAAAAAAAAAAAAAAVPRLRPPHDNRTMVEIIADHPAELVRTDSPNFLCSVLPSHWRCNKTLPVAFKVVALGEVPDGTVVTVMAGNDENYSAELRNASAVMKNQVARFNDLRFVGRSGRGKSFTLTITVFTNPPQVATYHRAIKVTVDGPREPRRHRQKLDDSKPSLFSDRLSDLGRIPHPSMRVGVPPQNPRPSLNSAPSPFNPQGQSQITDPRQAQSSPPWSYDQSYPSYLSQMTSPSIHSTTPLSSTRGTGLPAITDVPRRISDDDTATSDFCLWPSTLSKKSQAGASELGPFSDPRQFPSISSLTESRFSNPRMHYPATFTYTPPVTSGMSLGMSATTHYHTYLPPPYPGSSQSQSGPFQTSSTPYLYYGTSSGSYQFPMVPGGDRSPSRMLPPCTTTSNGSTLLNPNLPNQNDGVDADGSHSSSPTVLNSSGRMDESVWRPY
B2: EcoRV to BglII fragment: about 142 nucleotides, nucleotides 1673 to 1814 of SEQ ID NO: 1, in luciferase reporter construct (nucleic acid, listed as Homo sapiens)
DNA: ATCTGAAAACCACAGCCGCCAGCACGTGGGAGGTGCCGGAGAGCAGGCTTGGGCCTTGCCTCACACGCCCCCTCTCTCTGGGTCACCTGGGAGTGCCAGCAGCAATTTGGAAGTTTGCTGAGCTAGAGGAGAAGTCTTTGGG
modifications: in luciferase reporter construct
B3: MyoD: transcription factor overexpressed from an expression plasmid (150 ng) (protein, UniProt P15172 1-320, looked up)
Myoblast determination …: MELLSPPLRDVDLTAPDGSLCSFATTDDFYDDPCFDSPDLRFFEDLDPRLMHVGALLKPEEHSHFPAAVHPAPGAREDEHVRAPSGHHQAGRCLLWACKACKRKTTNADRRKAATMRERRRLSKVNEAFETLKRCTSSNPNQRLPKVEILRNAIRYIEGLQALLRDQDAAPPGAAAAFYAPGPLPPGRGGEHYSGDSDASSPRSNCSDGMMDYSGPPSGARRRNCYEGAYYNEAPSEPRPGKSAAVSSLDCLSSIVERISTESPAAPALLLADVPSESPPRRQEAAAPSEGESSGDPTQSPDAAPQCPAGANPNPIYQVL

Tests used:
SOST regulatory region = test: Transactivation of SOST reporter constructs by co-transfected expression plasmids in SAOS cells; type: cell-based, human; conditions: factor overexpressed, 48 hrs after transfection
Procedure: To determine whether transfected Cbfa1 could drive further increases in the transcriptional activity of the SOST promoter, the Cbfa1 gene was recovered from an SAOS cDNA library and inserted it into a mammalian expression vector.
To test the effects of the two proteins Cbaf1 and MyoD on transactivitation of the 1.8 kb SOST regulatory region, the following tests were performed. SAOS cells were transfected with 500 ng of either the EcoRV fragment (nucleotides 1673 to 1814 of SEQ ID NO: 1) or 1.8 kb SOST regulatory region (nucleotides 1 to 1841 of SEQ ID NO:1) and the indicated combinations of expression plasmids for MyoD (150 ng) or Cbfa1 (30 ng, 300 ng). pBluescript (Stratagene) was used as needed to bring the DNA total to 1 μg per well, and SEAP (20 ng) was used to normalize for transfection efficiency. Cells were harvested 48 hrs after transfection. Both the SOST-luc and the EcoRV fragment were activated by Cbaf1 and MyoD.

SAOS cells = test: Luciferase reporter assay of SOST regulatory region constructs, transient transfection; type: cell-based, human; conditions: deletion constructs in pGL2-Basic

Molecule | activity of the 1.8 kb SOST regulatory region reporter (SOST-luc) (SOST regulatory region) | activity of the EcoRV fragment reporter (SOST regulatory region) | activity of the 1.8 kb SOST regulatory region reporter (SOST-luc) (SOST regulatory region; listed as Cbaf1) | activity of the EcoRV fragment reporter (SOST regulatory region; listed as Cbaf1) | increase in luciferase activity over the 1.8 kb SOST regulatory region (SAOS cells)
B1 | increased activity | increased activity | activated | activated | –
B2 | – | – | – | – | almost three fold
B3 | activated | activated | – | – | –
